# Experimental data published in patent publication US20180030151A1 (MOGAM INSTITUTE FOR BIOMEDICAL RESEARCH, published 2018).
# Where a chain is given by its changes, count along the chain named. Like-named read-outs stand apart in the source and are kept apart here.
# B1: clone 308-4 (antibody, V domains shown)
# VH: EVQLVESGGGLVKPGGSLRLSCAASGFTFSSYAMNWVRQAPGKGLEWVSTITTGGSYTYYADSVEGRFTISRDNAKNSLYLQMNSLRAEDTAVYYCARQDGNFLMDYWGQGTLVTVSS
# VL: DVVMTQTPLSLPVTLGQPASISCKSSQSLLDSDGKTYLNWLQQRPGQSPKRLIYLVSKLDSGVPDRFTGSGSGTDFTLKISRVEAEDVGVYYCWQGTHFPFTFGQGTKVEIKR
# B2: clone 1232 (antibody, V domains shown)
# VH: B1 VH with E65D, N102H
# VL: DVVMTQTPLSLPVTLGQPASISCKSSQSLLDVDGKTYLNWLQQRPGQSPKRLIYLVSKLDSGVPDRFTGSGSGTDFTLKISRVEAEDVGVYYCWQGTHFPFTFGQGTKVEIKR
# notes: scFv on yeast at selection; human IgG4/kappa IgG as purified
# B3: clone 4041 (antibody, V domains shown)
# VH: B1 VH with N35S, Y57H, N102Y
# VL: B2 VL
# notes: as for B2
# B4: clone 4034 (antibody, V domains shown)
# VH: B1 VH with Y57H, N102Y
# VL: B2 VL with V32I
# notes: as for B2
# B5: clone 1223 (antibody, V domains shown)
# VH: B1 VH with N102H
# VL: B2 VL with V32I
# notes: as for B2
# B6: clone 1248 (antibody, V domains shown)
# VH: B1 VH with Y57H, E65D, N102H
# VL: B2 VL with V32I
# notes: as for B2
# B7: clone T308 (antibody, human IgG4, V domains shown)
# VH: EVKLVESGGGLVKPGGSLKLSCAASGFTFSNYPMSWVRQTPEKRLEWVATISNSGSYTYYPDSVKGRFTISRDNAKNTLYLQMNSLRSEDTAMYYCARQVYGNYEDFDYWGQGTTLTVSS
# VL: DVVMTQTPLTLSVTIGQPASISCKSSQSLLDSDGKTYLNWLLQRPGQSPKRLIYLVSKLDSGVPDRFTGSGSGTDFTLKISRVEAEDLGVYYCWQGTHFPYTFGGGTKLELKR
# Experiments:
# [1] = target: T1, recombinant human TFPI (tissue factor pathway inhibitor) (human, UniProt P10646 29-304); test: cell-based or functional assay
# [2] = target: T1, recombinant human TFPI (tissue factor …); test: cell-based or functional assay; remark: listed apart in the source
# [3] = target: T1, recombinant human TFPI (tissue factor …); test: cell-based or functional assay; remark: listed apart in the source
# [4] = target: T1, recombinant human TFPI (tissue factor …); test: cell-based or functional assay; remark: listed apart in the source
# [5] = target: T1, recombinant human TFPI (tissue factor …); test: cell-based or functional assay; remark: listed apart in the source
# [6] = target: T1, recombinant human TFPI (tissue factor …); test: cell-based or functional assay; remark: listed apart in the source
# [7] = target: T1, recombinant human TFPI (tissue factor …); test: cell-based or functional assay; remark: listed apart in the source
# [8] = target: T1, recombinant human TFPI (tissue factor …); test: cell-based or functional assay; remark: listed apart in the source
# [9] = target: T1, recombinant human TFPI (tissue factor …); test: cell-based or functional assay; remark: listed apart in the source
# [10] = target: T1, recombinant human TFPI (tissue factor …); test: cell-based or functional assay; remark: listed apart in the source
# [11] = target: T1, recombinant human TFPI (tissue factor …); test: cell-based or functional assay; remark: listed apart in the source
# [12] = target: T1, recombinant human TFPI (tissue factor …); test: cell-based or functional assay; remark: listed apart in the source
# [13] = target: T1, recombinant human TFPI (tissue factor …); test: SPR, Biacore T-200; TFPI immobilised on CM5 chip, IgG as analyte
# Method: 10 mM of glycine-HCl (pH 1.5) was run at a flow rate of 30 μL/min for 30 seconds, thereby inducing the dissociation of the antibody associated with the TFPI. The affinity in terms of kinetic rate constants (Kₒₙ and Koff) and equilibrium dissociation constant
# [14] = target: T1, recombinant human TFPI (tissue factor …); test: yeast-display scFv, FACS with biotinylated TFPI
# Method: The finally amplified single colonies were collected from the yeast display library, and then cultured in SD medium at 30° C. at 200 rpm for 12 hours. Then, the medium was replaced with SG medium, and the cells were cultured at 25° C. at 200 rpm for 12 hours or more, thereby expressing the antibody on the yeast surface. Next, the yeast cells recovered by centrifugation were washed with PBSF (1% BSA containing PBS) buffer, resuspended in 50 μl of PBSF buffer, and then incubated with a biotin-conjugated recombinant human TFPI protein and anti-c-myc mouse antibody (CAT. No. M4439, Sigma) at room temperature for 30 minutes. The incubated yeast cells were washed with PBSF, resuspended in 50 μl of PBSF buffer, and then incubated with FITC-conjugated anti-mouse antibody (CAT. No. F0257, Sigma) and PE-conjugated streptavidin on ice under a light-shielded condition for 15 minutes. Next, the cells were washed with PBSF buffer, resuspended in 500 μl of PBSF buffer, and then clones showing high values in the FITC and PE wavelength ranges were selected by FACS, thereby obtaining individual clones.
binder,measurement,setting,value
B1,"FXa assay % of FXa alone, 2.5 nM Ab, 10 nM TFPI",[1],8.3%
same,"FXa assay % of FXa alone, 5 nM Ab, 10 nM TFPI",[1],59.8%
same,"FXa assay % of FXa alone, 10 nM Ab, 10 nM TFPI",[1],73.9%
same,"FXa assay % of FXa alone, 20 nM Ab, 10 nM TFPI",[1],74.1%
same,"FXa assay OD, 2.5 nM Ab, 10 nM TFPI",[1],0.06
same,"FXa assay OD, 5 nM Ab, 10 nM TFPI",[1],0.43
same,"FXa assay OD, 10 nM Ab, 10 nM TFPI",[1],0.531
same,"FXa assay % of FXa alone, 2.5 nM Ab, 10 nM TFPI",[2],8.6%
same,"FXa assay % of FXa alone, 5 nM Ab, 10 nM TFPI",[2],30.7%
same,"FXa assay % of FXa alone, 10 nM Ab, 10 nM TFPI",[2],60.4%
same,"FXa assay % of FXa alone, 20 nM Ab, 10 nM TFPI",[2],71.6%
same,"FXa assay OD, 2.5 nM Ab, 10 nM TFPI",[2],0.069
same,"FXa assay OD, 5 nM Ab, 10 nM TFPI",[2],0.247
same,"FXa assay OD, 10 nM Ab, 10 nM TFPI",[2],0.487
same,"FXa assay OD, 20 nM Ab, 10 nM TFPI",[2],0.578
same,"FXa assay % of FXa alone, 2.5 nM Ab, 10 nM TFPI",[3],8.5%
same,"FXa assay % of FXa alone, 5 nM Ab, 10 nM TFPI",[3],26.5%
same,"FXa assay % of FXa alone, 10 nM Ab, 10 nM TFPI",[3],57.9%
same,"FXa assay % of FXa alone, 20 nM Ab, 10 nM TFPI",[3],67%
same,"FXa assay OD, 2.5 nM Ab, 10 nM TFPI",[3],0.041
same,"FXa assay OD, 5 nM Ab, 10 nM TFPI",[3],0.129
same,"FXa assay OD, 10 nM Ab, 10 nM TFPI",[3],0.28
same,"FXa assay OD, 20 nM Ab, 10 nM TFPI",[3],0.325
same,"TFPI inhibitory activity, FXa activity assay, Ab 10 nM",[4],78%
same,"TFPI inhibitory activity, FXa activity assay, Ab 40 nM",[4],82%
same,"TFPI inhibitory activity, TF/FVIIa/FXa complex assay, Ab 50 nM",[4],100%
same,"TFPI inhibitory activity, TF/FVIIa/FXa complex assay, Ab 100 nM",[4],100%
same,"A405, TF/FVIIa/FX complex assay, Ab 1.56 nM",[5],0.154
same,"A405, TF/FVIIa/FX complex assay, Ab 3.13 nM",[5],0.164
same,"A405, TF/FVIIa/FX complex assay, Ab 6.25 nM",[5],0.185
same,"A405, TF/FVIIa/FX complex assay, Ab 12.5 nM",[5],0.222
same,"A405, TF/FVIIa/FX complex assay, Ab 25 nM",[5],0.716
same,"A405, TF/FVIIa/FX complex assay, Ab 50 nM",[5],0.909
same,"A405, TF/FVIIa/FX complex assay, Ab 100 nM",[5],0.926
same,"A405, TF/FVIIa/FX complex assay, Ab 1.56 nM",[6],0.135
same,"A405, TF/FVIIa/FX complex assay, Ab 3.13 nM",[6],0.155
same,"A405, TF/FVIIa/FX complex assay, Ab 6.25 nM",[6],0.177
same,"A405, TF/FVIIa/FX complex assay, Ab 12.5 nM",[6],0.223
same,"A405, TF/FVIIa/FX complex assay, Ab 25 nM",[6],0.664
same,"A405, TF/FVIIa/FX complex assay, Ab 50 nM",[6],0.926
same,"A405, TF/FVIIa/FX complex assay, Ab 100 nM",[6],0.938
same,"TF/FVIIa/FXa assay % of 0 nM TFPI, 12.5 nM Ab, 50 nM TFPI",[7],20.7%
same,"TF/FVIIa/FXa assay % of 0 nM TFPI, 50 nM Ab, 50 nM TFPI",[7],111%
same,"TF/FVIIa/FXa assay % of 0 nM TFPI, 100 nM Ab, 50 nM TFPI",[7],111%
same,"TF/FVIIa/FXa assay OD, 12.5 nM Ab, 50 nM TFPI",[7],0.166 OD
same,"TF/FVIIa/FXa assay OD, 25 nM Ab, 50 nM TFPI",[7],0.548 OD
same,"TF/FVIIa/FXa assay OD, 50 nM Ab, 50 nM TFPI",[7],0.886 OD
same,"TF/FVIIa/FXa assay OD, 100 nM Ab, 50 nM TFPI",[7],0.89 OD
same,"FXa assay % of FXa alone, 0.625 nM Ab, 10 nM TFPI",[8],4%
same,"FXa assay % of FXa alone, 2.5 nM Ab, 10 nM TFPI",[8],8%
same,"FXa assay OD, 0.625 nM Ab, 10 nM TFPI",[8],0.042 OD
same,"FXa assay OD, 2.5 nM Ab, 10 nM TFPI",[8],0.083 OD
same,"FXa assay OD, 10 nM Ab, 10 nM TFPI",[8],0.765 OD
same,"FXa assay OD, 40 nM Ab, 10 nM TFPI",[8],0.804 OD
same,"FXa assay % of FXa alone, 2.5 nM Ab, 10 nM TFPI",[9],9.9%
same,"FXa assay % of FXa alone, 5 nM Ab, 10 nM TFPI",[9],56.8%
same,"FXa assay % of FXa alone, 10 nM Ab, 10 nM TFPI",[9],76.8%
same,"FXa assay % of FXa alone, 20 nM Ab, 10 nM TFPI",[9],77.3%
same,"FXa assay OD, 2.5 nM Ab, 10 nM TFPI",[9],0.0765
same,"FXa assay OD, 5 nM Ab, 10 nM TFPI",[9],0.438
same,"FXa assay OD, 10 nM Ab, 10 nM TFPI",[9],0.591
same,"FXa assay % of FXa alone, 2.5 nM Ab, 10 nM TFPI",[10],7%
same,"FXa assay % of FXa alone, 5 nM Ab, 10 nM TFPI",[10],20.8%
same,"FXa assay % of FXa alone, 10 nM Ab, 10 nM TFPI",[10],49.3%
same,"FXa assay % of FXa alone, 20 nM Ab, 10 nM TFPI",[10],68.4%
same,"FXa assay OD, 2.5 nM Ab, 10 nM TFPI",[10],0.057
same,"FXa assay OD, 5 nM Ab, 10 nM TFPI",[10],0.169
same,"FXa assay OD, 10 nM Ab, 10 nM TFPI",[10],0.401
same,"FXa assay OD, 20 nM Ab, 10 nM TFPI",[10],0.555
same,"% of Normalized, TF/FVIIa/FX complex assay, Ab 1.56 nM",[11],16.1%
same,"% of Normalized, TF/FVIIa/FX complex assay, Ab 3.13 nM",[11],17.2%
same,"% of Normalized, TF/FVIIa/FX complex assay, Ab 6.25 nM",[11],19.4%
same,"% of Normalized, TF/FVIIa/FX complex assay, Ab 12.5 nM",[11],23.2%
same,"% of Normalized, TF/FVIIa/FX complex assay, Ab 25 nM",[11],75%
same,"% of Normalized, TF/FVIIa/FX complex assay, Ab 50 nM",[11],95.2%
same,"% of Normalized, TF/FVIIa/FX complex assay, Ab 100 nM",[11],97%
same,"% of Normalized, TF/FVIIa/FX complex assay, Ab 1.56 nM",[12],14.7%
same,"% of Normalized, TF/FVIIa/FX complex assay, Ab 3.13 nM",[12],16.8%
same,"% of Normalized, TF/FVIIa/FX complex assay, Ab 6.25 nM",[12],19.2%
same,"% of Normalized, TF/FVIIa/FX complex assay, Ab 12.5 nM",[12],24.2%
same,"% of Normalized, TF/FVIIa/FX complex assay, Ab 25 nM",[12],72.3%
same,"% of Normalized, TF/FVIIa/FX complex assay, Ab 50 nM",[12],101%
same,"% of Normalized, TF/FVIIa/FX complex assay, Ab 100 nM",[12],102%
same,Kd,[13],0.024 nM
B2,binding result,[14],binds
B3,binding result,[14],binds
B4,binding result,[14],binds
B5,binding result,[14],binds
B6,binding result,[14],binds
B7,"effect of inhibiting TFPI, FXa activity assay, Ab 10 nM",[4],89%
same,Kd,[13],0.0094 nM
